Measurements published in publication PMC12216326.

How the values were obtained:
[1] = molecular target: GST-DDX39B (residues 1-428) (human) (UniProt Q13838)
[2] = molecular target: GST-DDX39B (residues 1-428) (human) (UniProt Q13838); remark: listed apart in the source

Sequence of UniProt Q13838 (Q13838 whole entry, the tested form may be a part): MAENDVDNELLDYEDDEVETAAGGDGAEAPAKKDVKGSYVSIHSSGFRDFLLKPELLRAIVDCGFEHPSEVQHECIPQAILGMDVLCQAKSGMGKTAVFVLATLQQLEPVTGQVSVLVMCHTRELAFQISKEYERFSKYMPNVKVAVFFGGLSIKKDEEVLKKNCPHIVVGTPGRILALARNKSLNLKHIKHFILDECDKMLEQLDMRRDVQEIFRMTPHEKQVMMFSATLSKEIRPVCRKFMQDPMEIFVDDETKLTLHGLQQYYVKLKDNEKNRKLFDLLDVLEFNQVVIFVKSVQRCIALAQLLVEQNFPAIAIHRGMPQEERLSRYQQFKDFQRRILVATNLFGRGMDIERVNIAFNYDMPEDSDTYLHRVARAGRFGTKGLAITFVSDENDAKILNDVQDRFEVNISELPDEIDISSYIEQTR

Row | Substance | ATPase activity of DDX39B (NADH enzyme-coupled assay with poly(A) RNA), stimulation by TREX-2.1 [1] [fold] | ATPase activity of DDX39B, stimulation by TREX-2.1-mut against wild-type TREX-2.1 (fold reduction) [2]
1 | TREX-2.1 complex (LENG8 residues 490-800/PCID2/DSS1) (from UniProt Q96PV6-2 490-800; Q5JVF3 1-399; P60896 1-70) | 80 | –
2 | TREX-2.1-mut (LENG8 residues 490-800 with 563RLTCAP568 replaced by GGGG/PCID2/DSS1) (from UniProt Q96PV6-2 490-800; Q5JVF3 1-399; P60896 1-70) (complex) | – | 4
